Measured values published in patent publication US20240317834A1, “COMPOSITIONS AND METHODS FOR NEUROLOGICAL DISEASES” (CODA BIOTHERAPEUTICS, INC., priority 2020, published 2024).
Where a chain is given by its changes, count along the chain named. In names and notes the source's numbering stands.

B1: CODA236: engineered chimeric LGIC receptor, R101F in SEQ ID NO: 33 (protein)
chain: MRCSPGGVWLALAASLLHVSLQGEFQRKLYKELVKNYNPLERPVANDSQPLTVYFSLSLLQIMDVDEKNQVLTTNIWLQMSWTDHYLQWNVSEYPGVKTVFFPDGQIWKPDILLYNSADERFDATFHTNVLVNSSGHCQYLPPGIFKSSCPMDLKNFPMDVQTCKLKFGSWSYGGWSLDLQMQEADISGYIPNGEWDLVGIPGKRSERFYECCKEPYPDVTFTVTMRRRMGYYLIQMYIPSLLIVILSWISFWINMDAAPARVGLGITTVLTMTTQSSGSRASLPKVSYVKAIDIWMAVCLLFVFSALLEYAAVNFVSRQHKELLRFRRKRRHHKSPMLNLFQEDEAGEGRFNFSAYGMGPACLQAKDGISVKGANNSNTTNPPPAPSKSPEEMRKLFIQRAKKIDKISRIGFPMAFLIFNMFYWIIYKIVRREDVHNQ
modifications: synthetic sequence of chimeric LGIC
B2: CODA238: engineered chimeric LGIC receptor, R101W in SEQ ID NO: 33 (protein)
chain: B1 chain with F101W
modifications: synthetic sequence of chimeric LGIC
B3: CODA237: engineered chimeric LGIC receptor, R101M in SEQ ID NO: 33 (protein)
chain: B1 chain with F101M
modifications: synthetic sequence of chimeric LGIC

Each molecule was assayed on Lenti-X 293T cells (assay: YFP fluorescence quenching anion reporter plate reader assay of engineered receptors stimulated with acetylcholine or a non-native ligand). Settings: 1 nM CNL001, first column.
Format: cell-based
Description: To screen these mutant LGICs for those having novel response profiles to ligands, an anion reporter assay was developed to assess the function of the LGICs in a high throughput format. In this assay, cells expressing a YFP reporter whose fluorescence is quenched in the presence of anion are transfected with DNA encoding the channel of interest. Upon exposure to ligand, channels that are activated will flux anion, resulting in a dose-dependent quench of the YFP that can be detected on a plate reader. The greater the quench signal (i.e., the more positive the value), the higher the ligand activity on the receptor is.
Lenti-X 293T cells (LX293T, Clontech) were maintained in DMEM containing 10% FBS and 1% penicillin/streptomycin (Invitrogen). […] Two days before assay, cells were split at a density of 20,000 cells/well in a 96-well tissue culture plate coated with poly-d lysine (Thermo Scientific). The next day, the cells were transiently transfected with 0.1 μg of DNA per well using standard Fugene protocol (Promega). On the day of assay, cells were washed 2 times in 1× extracellular solution (1×ECS: 140 mM NaCl, 5 mM KCl, 1 mM MgCl2, 2 mM CaCl2), 10 mM HEPES, 10 mM glucose, pH 7.2, mOsms 300). After the last wash, 100 μL of 1×ECS was added to the wells and the plate was incubated at 37° C. for 30 min. While incubating the plate, the drugs were diluted to a 2× concentration in 1×ECS-NaI (same components as 1×ECS except the 140 mM NaCl was replaced by 140 mM NaI). The plates were then read on a Flexstation3 (Molecular Devices). Each well, 8 wells at a time, of the plate is read for 2 min using a Flexstation3 (Molecular Devices) as follows: 1) a baseline YFP fluorescence is read for 17 sec, 2) 100 μL of ligand is added, and 3) the changes in YFP fluorescence are then measured every 1.3 sec for 1 minute and 43 seconds. The percent quench is calculated from the average fluorescence of the last 10 seconds of the read divided by the baseline average of the first 15 seconds prior to the ligand addition.
FIGS. 1A-1J provide heat maps of the percent quench of YFP fluorescence following stimulation by various doses of either acetylcholine or the non-native ligand as indicated in the Figures. CODA71 (SEQ ID NO: 33) was used as a control, and CODA75 (SEQ ID NO: 29, a non-responding chimeric engineered receptor) was used as the negative control. Quenching of the fluorescence signal, as indicated by blue shaded cells, indicate the level of engineered receptor activation by the non-native ligand at that concentration.

| Molecule | YFP fluorescence quenching using CNL001 [%] |
| --- | --- |
| B1 | 9.048 |
| B2 | 32.42 |
| B3 | −2.114 |

Same assay, conditions: 1 nM CNL001, second column

| Molecule | YFP fluorescence quenching using CNL001 [%] |
| --- | --- |
| B1 | 26.601 |
| B2 | 54.768 |
| B3 | −5.079 |

Same assay, conditions: 3 nM brd

| Molecule | YFP fluorescence quenching using TC-5619/Bradanicline [%] |
| --- | --- |
| B1 | 49.33 |
| B2 | 74.7 |
| B3 | −14.87 |

Same assay, conditions: 3 nM var, first column

| Molecule | YFP fluorescence quenching using Varenicline |
| --- | --- |
| B1 | 19.949 |
| B2 | 17.896 |
| B3 | 18.429 |

Same assay, conditions: 3 nM var, second column

| Molecule | YFP fluorescence quenching using Varenicline |
| --- | --- |
| B1 | 22.334 |
| B2 | 12.564 |
| B3 | 16.83 |

Same assay, conditions: 10 nM CNL001, first column

| Molecule | YFP fluorescence quenching using CNL001 [%] |
| --- | --- |
| B1 | 71.533 |
| B2 | 75.149 |
| B3 | 15.096 |

Same assay, conditions: 10 nM CNL001, second column

| Molecule | YFP fluorescence quenching using CNL001 [%] |
| --- | --- |
| B1 | 72.948 |
| B2 | 75.339 |
| B3 | 50.554 |

Same assay, conditions: 30 nM brd

| Molecule | YFP fluorescence quenching using TC-5619/Bradanicline [%] |
| --- | --- |
| B1 | 77.38 |
| B2 | 76.78 |
| B3 | 69.93 |

Same assay, conditions: 30 nM fac

| Molecule | YFP fluorescence quenching using Facinicline |
| --- | --- |
| B1 | −28.54 |
| B2 | −19.61 |
| B3 | −24.14 |

Same assay, conditions: 30 nM var, first column

| Molecule | YFP fluorescence quenching using Varenicline |
| --- | --- |
| B1 | 15.764 |
| B2 | 16.263 |
| B3 | 23.07 |

Same assay, conditions: 30 nM var, second column

| Molecule | YFP fluorescence quenching using Varenicline |
| --- | --- |
| B1 | 16.213 |
| B2 | 22.117 |
| B3 | 15.868 |

Same assay, conditions: 50 nM CNL001, first column

| Molecule | YFP fluorescence quenching using CNL001 [%] |
| --- | --- |
| B1 | 75.895 |
| B2 | 75.881 |
| B3 | 66.585 |

Same assay, conditions: 50 nM CNL001, second column

| Molecule | YFP fluorescence quenching using CNL001 [%] |
| --- | --- |
| B1 | 74.238 |
| B2 | 77.844 |
| B3 | 74.462 |

Same assay, conditions: 50 nM abt

| Molecule | YFP fluorescence quenching using ABT-126 [%] |
| --- | --- |
| B1 | −18.69 |
| B2 | −14.97 |
| B3 | −24.34 |

Same assay, conditions: 100 nM CNL001, first column

| Molecule | YFP fluorescence quenching using CNL001 [%] |
| --- | --- |
| B1 | 76 |
| B2 | 78 |
| B3 | 78 |

Same assay, conditions: 100 nM CNL001, second column

| Molecule | YFP fluorescence quenching using CNL001 [%] |
| --- | --- |
| B1 | 75.861 |
| B2 | 78.575 |
| B3 | 77.411 |

Same assay, conditions: 100 nM CNL002

| Molecule | YFP fluorescence quenching using CNL002 [%] |
| --- | --- |
| B1 | −9.56 |
| B2 | 2.95 |
| B3 | −8.68 |

Same assay, conditions: 100 nM abt

| Molecule | YFP fluorescence quenching using ABT-126 [%] |
| --- | --- |
| B1 | −23.01 |
| B2 | −14.66 |
| B3 | −20.22 |

Same assay, conditions: 100 nM azd0328

| Molecule | YFP fluorescence quenching using AZD-0328 [%] |
| --- | --- |
| B1 | −9.78 |
| B2 | 22.94 |
| B3 | −17.84 |

Same assay, conditions: 300 nM abt

| Molecule | YFP fluorescence quenching using ABT-126 [%] |
| --- | --- |
| B1 | −20.92 |
| B2 | −16.35 |
| B3 | −20.57 |

Same assay, conditions: 300 nM azd0328

| Molecule | YFP fluorescence quenching using AZD-0328 [%] |
| --- | --- |
| B1 | 49.64 |
| B2 | 75.38 |
| B3 | −11.98 |

Same assay, conditions: 300 nM brd

| Molecule | YFP fluorescence quenching using TC-5619/Bradanicline [%] |
| --- | --- |
| B1 | 77.51 |
| B2 | 77.01 |
| B3 | 76.57 |

Same assay, conditions: 300 nM fac

| Molecule | YFP fluorescence quenching using Facinicline |
| --- | --- |
| B1 | 72.98 |
| B2 | 76.54 |
| B3 | −14.38 |

Same assay, conditions: 300 nM var, first column

| Molecule | YFP fluorescence quenching using Varenicline |
| --- | --- |
| B1 | 23.135 |
| B2 | 77.492 |
| B3 | 18.819 |

Same assay, conditions: 300 nM var, second column

| Molecule | YFP fluorescence quenching using Varenicline |
| --- | --- |
| B1 | 22.987 |
| B2 | 79.056 |
| B3 | 19.155 |

Same assay, conditions: 500 nM var, first column

| Molecule | YFP fluorescence quenching using Varenicline |
| --- | --- |
| B1 | 35.048 |
| B2 | 80.186 |
| B3 | 19.117 |

Same assay, conditions: 500 nM var, second column

| Molecule | YFP fluorescence quenching using Varenicline |
| --- | --- |
| B1 | 34.188 |
| B2 | 80.065 |
| B3 | 22.593 |

Same assay, conditions: 1 uM CNL001, first column

| Molecule | YFP fluorescence quenching using CNL001 [%] |
| --- | --- |
| B1 | 76.367 |
| B2 | 81.126 |
| B3 | 79.06 |

Same assay, conditions: 1 uM CNL001, second column

| Molecule | YFP fluorescence quenching using CNL001 [%] |
| --- | --- |
| B1 | 76.162 |
| B2 | 79.482 |
| B3 | 79.162 |

Same assay, conditions: 1 uM CNL002

| Molecule | YFP fluorescence quenching using CNL002 [%] |
| --- | --- |
| B1 | 56.9 |
| B2 | 67.93 |
| B3 | −2.24 |

Same assay, conditions: 1 uM abt

| Molecule | YFP fluorescence quenching using ABT-126 [%] |
| --- | --- |
| B1 | 4.99 |
| B2 | 50.02 |
| B3 | −19.55 |

Same assay, conditions: 1 uM tc6987

| Molecule | YFP fluorescence quenching using TC-6987 |
| --- | --- |
| B1 | 45.34 |
| B2 | 72.47 |
| B3 | −21.62 |

Same assay, conditions: 1 uM var, first column

| Molecule | YFP fluorescence quenching using Varenicline |
| --- | --- |
| B1 | 71.031 |
| B2 | 81.263 |
| B3 | 24.525 |

Same assay, conditions: 1 uM var, second column

| Molecule | YFP fluorescence quenching using Varenicline |
| --- | --- |
| B1 | 71.005 |
| B2 | 80.702 |
| B3 | 23.383 |

Same assay, conditions: 10 uM tc6987

| Molecule | YFP fluorescence quenching using TC-6987 |
| --- | --- |
| B1 | 70.04 |
| B2 | 72.04 |
| B3 | 21.52 |

Same assay, conditions: 30 uM CNL002

| Molecule | YFP fluorescence quenching using CNL002 [%] |
| --- | --- |
| B1 | 70.28 |
| B2 | 73.02 |
| B3 | 66.99 |

Same assay, conditions: 30 uM azd0328

| Molecule | YFP fluorescence quenching using AZD-0328 [%] |
| --- | --- |
| B1 | 81.14 |
| B2 | 81.8 |
| B3 | 81.2 |

Same assay, conditions: 30 uM fac

| Molecule | YFP fluorescence quenching using Facinicline |
| --- | --- |
| B1 | 87.6 |
| B2 | 87.94 |
| B3 | 88.78 |

Same assay, conditions: 500 uM tc6987

| Molecule | YFP fluorescence quenching using TC-6987 |
| --- | --- |
| B1 | 75.86 |
| B2 | 76.56 |
| B3 | 60.33 |

Same assay, conditions: acetylcholine 10 uM

| Molecule | percent quench of YFP fluorescence, 10 uM ach [%] |
| --- | --- |
| B1 | −18.24 |
| B2 | −16.58 |
| B3 | −16.79 |

Same assay, conditions: acetylcholine 100 uM

| Molecule | percent quench of YFP fluorescence, 100 uM ach [%] |
| --- | --- |
| B1 | 60 |
| B2 | 75.18 |
| B3 | −18.63 |

Same assay, conditions: acetylcholine 1 mM

| Molecule | percent quench of YFP fluorescence, 1 mM ach [%] |
| --- | --- |
| B1 | 66.07 |
| B2 | 78.99 |
| B3 | 46.28 |

Same assay, conditions: acetylcholine 3 mM

| Molecule | percent quench of YFP fluorescence, 3 mM ach [%] |
| --- | --- |
| B1 | 71.38 |
| B2 | 75.74 |
| B3 | 69.31 |
